Measured values reported in patent US20240131065A1 (CRAGE MEDICAL, published 2024).

Target: T1, CD94 monomeric Fc fusion protein (human, UniProt P0DOX5 223-449 = IgG part)
T1 construct: also called huFc(hole)-CD94-ECD and huFc(knob); human CD94 monomeric Fc fusion protein antigen
Assay: phage display panning on coated CD94 monomeric Fc fusion protein, then ELISA
Experimental: Briefly, immunotubes were coated with 10 μg/ml of the antigene CD94 monomeric Fc fusion protein prepared above, blocked with phosphate buffered saline (MPBS) comprising 3% […] for 2 hours at room temperature. In order to screen for antibodies that specifically bind to CD94, the phage library was added to the immunotubes coated with the antigen CD94 monomeric Fc fusion protein and bound for 1.5 hours. The non-specific phages were then washed away, and the bound phages were eluted with 100 mM triethylamine and infected E. coli TG1 in logarithmic growth phase. Expanded culture of the eluted phages, and the expanded phage library was purified using PEG/NaCl precipitation for the next round of screening.
A total of three rounds of screening were performed, and 9 positive clones that specifically bind to CD94 were obtained after three rounds of screening. These clones were subsequently subjected to ELISA and sequencing analysis, two unique sequences were selected, 2B1 and 2F1, respectively. The ELISA results are shown in FIG. 2 (NA is the blank control group).

B1: 2B1 (Fab, V domains shown)
VH: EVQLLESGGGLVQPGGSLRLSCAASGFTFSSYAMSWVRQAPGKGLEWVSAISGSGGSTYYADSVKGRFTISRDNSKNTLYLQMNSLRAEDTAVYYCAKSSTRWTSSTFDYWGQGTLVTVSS
VL: DIQMTQSPSTLSASVGDRVTITCRASQSISSWLAWYQQKPGKAPKLLIYDASSLESGVPSRFSGSGSGTEFTLTISSLQPDDFATYYCQQYYFYPYTFGQGTKVEIKR
notes: Clone from a fully human Fab phage display library; also called antibody 2B1; CD94-specific antibody
- binding result: binds
